Measurements from the supplement of paper PMC10567573.

B1: FAM189A2 (parent)
chain: GSEAAVIPLDLGCTQVTQDGDIPN
B2: TOR1AIP2 (parent)
chain: SPGHSSAGQEGEDTLRRRLLAPEA

Variants of: B1
Assay: protein stability index of a GFP-peptide fusion (GPS, HEK-293T) (PSI 1-6); higher = more stable
Conditions: c terminus: a fixed tail appended
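Also: lentivirally expressed fusions sorted by FACS into six bins by GFP to DsRed ratio, PSI derived from sequencing read proportions per bin multiplied by bin number.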

Protein stability index: each site, then its substitutions
N24: H 5.28, A 5.27, C 5.25, V 5.17, R 4.91, Q 5.3, Y 4.91, W 4.39, M 4.95, P 5.14, G 5.53, E 5.28, K 5.03, S 5.51, L 4.79, T 5.54, D 5.42, I 4.51, F 4.53
P23: Q 5.3, R 4.89, V 5.29, M 5.22, F 4.35, N 5.87, Y 4.52, A 5.3, E 5.55, I 5.16, H 4.85, T 5.5, S 5.3, W 4.07, G 5.44, K 5.17, L 5.25, D 5.81, C 4.93

Variants of: B2
Assay: as above
Conditions: c terminus: a fixed tail appended

Protein stability index, by site and new letter:
G3: Q 4.46, H 4.21, M 4.48, K 3.67, L 3.78, V 3.24, C 3.32, P 4.69, S 4.02, D 4.73, R 2.93, I 3.51, T 3.59, N 4.16, E 4.65, Y 3.83, A 3.74, W 4.3, F 3.85
S6: A 4.36, E 4.51, M 4.02, R 4.46, D 4.48, I 3.42, L 4.18, N 3.75, T 4.36, Y 3.73, G 3.66, W 3.97, K 3.97, H 4.23, C 3.9, Q 4.65, V 3.24, F 2.94, P 4.26
Q9: K 4.02, G 2.94, A 4.35, M 3.43, N 4.05, S 4.24, P 4.53, C 3.22, V 3.98, F 4.11, T 3.96, R 3.5, E 4.31, Y 3.68, H 3.83, W 3.04, I 4.08, L 3.58, D 3.84
G8: F 3.34, D 4.51, H 4.69, E 4.5, P 4.53, R 4, M 4.05, W 4.19, K 4.19, V 4.43, A 4.24, T 4.61, Y 3.79, L 4.21, Q 4.33, I 4.53, S 4.42, C 4.46, N 4.05
H4: I 3.92, K 3.52, A 4.22, Q 3.82, P 4.49, R 3.76, C 3.71, D 4.89, M 3.38, W 3.98, T 4.14, L 3.85, G 4.08, Y 3.84, V 3.81, S 4.39, E 4.15, N 4.13, F 4.3
L15: K 4.96, R 5.01, V 4.93, T 5.31, S 5.16, N 5.49, Q 4.98, A 5.47, C 3.98, Y 4.89, I 4.53, F 4.3, G 5.44, P 5.23, H 5.13, M 4.79, E 5.35, W 3.92, D 5.7
A7: R 3.82, F 4.16, W 3.89, V 4.25, G 4.21, Y 3.9, D 4.56, I 3.92, Q 4.24, L 3.73, H 3.77, E 4.47, T 4.18, M 3.79, K 3.66, P 3.42, S 4.01, N 3.76, C 3.45
S1: H 4.57, C 3.46, T 4.88, K 4.47, V 4.59, I 4.92, R 4.05, A 5.07, L 4.91, E 5.47, P 5.3, D 5.21, N 3.13, Q 4.02, F 2.59, Y 2.21, W 4.53, G 3.81, M 4.49
S5: E 4.64, H 4.35, M 4.49, Y 4.09, D 4.75, P 4.14, V 4.3, W 4.63, F 4, T 4.46, K 3.86, A 3.84, I 3.78, C 3.37, R 4, G 4.11, L 3.9, Q 4.64, N 4.42
G11: Q 4.38, I 3.82, C 3.88, S 4.48, R 4.64, L 4.13, Y 3.39, V 4.04, N 4.46, H 4.07, W 3.6, D 4.64, K 4.5, A 4, P 4.05, M 4.15, E 4.6, T 4.62, F 3.49
T14: A 4.06, F 4.39, W 4.5, R 4.65, K 4.94, H 4.33, G 4.41, E 4.4, M 4.34, L 4.84, Q 4.11, C 2.67, I 4.42, N 3.63, P 4.33, S 3.08, D 4.18, Y 4.2, V 3.97
D13: G 4.1, F 3.02, T 3.65, W 2.96, Q 4.09, Y 2.8, R 3.32, C 4.05, H 4.31, A 3.19, S 3.67, K 4.52, P 4.53, V 4.15, L 3.77, M 3.06, E 4.73, N 4.27, I 3.88
R16: E 5.46, A 5.37, I 5.06, C 5.14, F 4.71, H 5.38, K 4.79, G 5.41, L 4.61, D 5.68, M 4.6
E12: M 3.53, G 3.73, I 3.73, Y 3.22, D 3.97, H 3.73, A 3.48, K 3.98, T 3.6, S 3.3, L 3.33, F 3.1, C 4, R 3.84, N 3.81, Q 3.38, V 3.22, W 3.19, P 3.59
P2: W 2.65, I 2.5, L 2.43, D 4.86, S 3.93, H 4.2, F 2.53, Y 2.24, T 3.23, R 4.47, M 3.75, V 2.75, K 4.44, Q 4.47, E 4.43, C 2.03, G 4.22, N 4.42, A 2.22
E10: R 3.62, H 3.61, W 3.42, L 3.31, M 3.58, N 3.72, A 3.75, P 3.94, S 4.06, V 4.04, C 2.67, Q 3.88, G 3.91, T 3.81, D 3.94, I 3.63, K 3.27, F 3.68, Y 3.51
